Reference: patent US11053313B2, “Anti-CLDN-5 antibody, and drug containing said antibody” (OSAKA UNIVERSITY, priority 2017, dated 2021)
Positions count from the first letter of the chain named.

What was measured:
[1] = test system: blood-brain barrier simulation system; assay: Material permeability of blood-brain barrier simulation system (monkey BBB kit); assay type: cell-based; settings: 12 hours after addition, FIG. 13
[2] = test system: hCLDN-5; assay: Epitope analysis by hCLDN-5/mCLDN-5 chimeric CLDN (D68E, T75A, S151T, TM; FACS); assay type: binding, human; settings: antibody concentration 5 μg/mL, mutants D68E
[3] = test system: ZO-1; assay: ZO-1 localization by immunostaining in blood-brain barrier simulation system; assay type: cell-based; settings: monkey BBB kit, 12 hours after addition, FIG. 14
[4] = biological target: T1, hCLDN-5 (Homo sapiens, UniProt O00501); assay: Western blotting operability, HT-1080/hCLDN-5 lysate; assay type: binding; settings: SDS-PAGE under reducing condition, antibody concentration 10 μg/mL, FIG. 5
T1 construct: expressed in transfected cells; host or cells: HT-1080 human fibrosarcoma cells infected with a pCX4pur-derived retrovirus (HT-1080/hCLDN-5)
T1 sequence (O00501 1-218): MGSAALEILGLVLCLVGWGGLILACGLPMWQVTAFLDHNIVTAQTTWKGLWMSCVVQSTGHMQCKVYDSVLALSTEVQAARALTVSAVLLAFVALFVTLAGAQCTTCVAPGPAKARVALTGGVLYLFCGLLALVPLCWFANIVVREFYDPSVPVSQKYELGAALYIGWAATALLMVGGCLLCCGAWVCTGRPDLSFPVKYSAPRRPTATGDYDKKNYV
Procedure: FIG. 5 illustrates western blotting images showing the CLDN-5 primary structure recognizability of the anti-CLDN-5 antibodies obtained in Example 3-6). The primary antibodies used are shown at the top of the images, and the used cells are shown under the primary antibodies. The names of proteins represented by bands are shown on the left side of the images.
Cell lysates were prepared from HT-1080/mock and HT-1080/hCLDN-5 obtained in Example 1-2), and the lysates were separated by SDS-PAGE under a reducing condition. By using the antibodies (antibody concentration: 10 μg/mL) obtained in Example 1 as primary antibodies, western blotting was performed according to the conventional method. As primary antibodies, commercial monoclonal antibodies (4C3C2, Invitrogen, 35-2500) recognizing the C-terminal of CLDN-5 were used as positive control, and β actin antibodies (Sigma Aldrich, A1978) were used as loading control. The results are illustrated in FIG. 5.

[5] = test system: MDCKII/hCLDN-5; assay: TEER of CLDN-5 compulsory expression system, MDCKII/hCLDN-5; assay type: cell-based, human; settings: MDCKII/hCLDN-5, FIG. 7B
[6] = biological target: T2, mCLDN-5 (Mus musculus, UniProt O54942); assay: Cross-species activity FACS, mCLDN-5-expressing cells; assay type: binding; settings: antibody concentration 5 μg/mL, FIG. 2
T2 construct: expressed in transfected cells; host or cells: retrovirus-infected cells
T2 sequence (O54942 1-218): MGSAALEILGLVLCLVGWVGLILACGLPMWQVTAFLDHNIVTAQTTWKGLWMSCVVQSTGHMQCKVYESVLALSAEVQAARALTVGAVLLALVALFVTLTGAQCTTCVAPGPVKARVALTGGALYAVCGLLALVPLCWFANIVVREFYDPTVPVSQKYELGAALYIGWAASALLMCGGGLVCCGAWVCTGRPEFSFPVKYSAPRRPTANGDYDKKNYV

[7] = test system: CLDN-5; assay: CLDN-5 localization by immunostaining in blood-brain barrier simulation system; assay type: cell-based; settings: monkey BBB kit, 12 hours after addition, FIG. 14
[8] = biological target: T2, mCLDN-5; assay: Evaluation of CLDN specificity by FACS, mCLDN-5-expressing cells; assay type: binding; settings: hybridoma culture supernatant as primary antibody, FIG. 1B
[9] = biological target: T3, 5-5-1 (Homo sapiens, UniProt O00501, A162Q/K157R/L160F/Q156A/S151M/S155N/V152T); assay: Epitope analysis FACS, chimeric protein 5-5-1; assay type: binding; settings: antibody concentration 5 μg/mL; second extracellular loop substituted with hCLDN-1
T3 construct: expressed in transfected cells; host or cells: retrovirus-infected cells (pCX4pur)
T3 sequence (O00501 1-218 S151M/V152T/S155N/Q156A/K157R/L160F/A162Q): T1 sequence (O00501 1-218) with S151M, V152T, S155N, Q156A, K157R, L160F, A162Q

[10] = test system: hCLDN-5; assay: Epitope analysis by hCLDN-5/hCLDN-1 chimeric CLDN (FACS), loop assignment; assay type: binding, human; settings: antibody concentration 5 μg/mL, hCLDN-5/hCLDN-1 chimeras
[11] = biological target: T4, 1-1-5 (Homo sapiens, UniProt O00501, A34S/A72N/D37G/E76T/F35Y/G26A/H38D/H61Q/K48E/L36A/M29Q/M62I/Q31R/T33Y/T45A/T46M/T75S/V32I/V56S/V70L/W47Y/Y67F); assay: Epitope analysis FACS, chimeric protein 1-1-5; assay type: binding; settings: antibody concentration 5 μg/mL; first extracellular loop substituted with hCLDN-1
T4 construct: expressed in transfected cells; host or cells: retrovirus-infected cells (pCX4pur)
T4 sequence (O00501 1-218 G26A/M29Q/Q31R/V32I/T33Y/A34S/F35Y/L36A/D37G/H38D/T45A/T46M/W47Y/K48E/V56S/H61Q/M62I/Y67F/V70L/A72N/T75S/E76T): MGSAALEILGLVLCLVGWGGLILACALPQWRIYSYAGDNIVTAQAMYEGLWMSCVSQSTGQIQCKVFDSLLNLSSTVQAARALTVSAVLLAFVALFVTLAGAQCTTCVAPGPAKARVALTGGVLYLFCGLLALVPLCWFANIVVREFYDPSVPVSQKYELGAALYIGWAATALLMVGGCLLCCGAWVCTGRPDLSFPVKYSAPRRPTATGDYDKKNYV

B1: R9: rat anti-CLDN-5 monoclonal antibody, IgG2b/K; VH SEQ ID NO: 17, VL SEQ ID NO: 18; example of antibody I (antibody, V domains shown)
VH: QVTLKESGPGILQPSHTLSLTCSFSGFSLNTYGVGVNWIRQPSGKGLEWLASIWWHGKTYINPSLKNRLTVSKDPSNNQAFLEVTNVDPADTATYYCAHARAQLLDYWGQGVMVTVSS
VL: DIVMTQTPSSQAVSAGEKVTMSCKSSQSLLYSGDQKNYLAWYQQKPGQSPKLLIYLTSTRESGVPDRFIGSGSGTDFTLTISSVQAEDLADYYCQQHYSYPLTFGSGTKLEI
modifications: R9 VH; R9 VL
[1]
  4 kDa FITC-dextran permeability of the blood-brain barrier simulation system: exhibited an activity of improving
[2]
  portion of hCLDN-5 recognized: domain around the 151st amino acid from the N-terminal present in the second extracellular loop
[3]
  localization properties of ZO-1: did not change
[4]
  recognition of linear peptide (western blotting operability): strongly recognized
[5]
  reduction in TEER: greatly reducing TEER
[6]
  binding capacity to mCLDN-5: extremely low
[7]
  localization properties of CLDN-5 in the intercellular space: reduced
[8]
  binding capacity to mCLDN-5: extremely low
[9]
  recognition of 5-5-1: incapable of recognizing
[10]
  extracellular loop of CLDN-5 recognized: second extracellular loop
[11]
  recognition of 1-1-5: capable of recognizing
